Measurements: patent US20210115135A1 (ZHEJIANG SHIMAI PHARMACEUTICAL, published 2021)

T1: LAG3 of the Promega LAG3-MHCII Blockade Bioassay Kit (Cat. No.: CS194802) (UniProt P18627 23-525, limits assumed)
T1 sequence (looked up): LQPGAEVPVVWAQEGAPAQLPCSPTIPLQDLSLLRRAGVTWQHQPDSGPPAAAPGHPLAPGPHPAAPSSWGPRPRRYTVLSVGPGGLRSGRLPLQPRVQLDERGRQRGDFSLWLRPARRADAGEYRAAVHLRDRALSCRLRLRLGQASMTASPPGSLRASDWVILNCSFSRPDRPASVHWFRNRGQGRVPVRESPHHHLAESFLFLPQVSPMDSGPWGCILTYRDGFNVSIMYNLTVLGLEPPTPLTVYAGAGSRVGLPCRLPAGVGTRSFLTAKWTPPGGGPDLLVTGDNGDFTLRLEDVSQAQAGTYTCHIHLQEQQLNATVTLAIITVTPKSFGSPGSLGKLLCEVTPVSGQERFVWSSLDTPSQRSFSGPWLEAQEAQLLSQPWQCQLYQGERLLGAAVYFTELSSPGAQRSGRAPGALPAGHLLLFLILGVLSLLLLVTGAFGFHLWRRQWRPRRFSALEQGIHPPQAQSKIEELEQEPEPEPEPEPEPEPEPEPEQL

T2: recombinant human LAG3 (Sino Biological Inc.) (human, UniProt P18627 23-450)
T2 construct: Bought recombinant protein; also called CD223; biotinylated recombinant human LAG3
T2 sequence (looked up): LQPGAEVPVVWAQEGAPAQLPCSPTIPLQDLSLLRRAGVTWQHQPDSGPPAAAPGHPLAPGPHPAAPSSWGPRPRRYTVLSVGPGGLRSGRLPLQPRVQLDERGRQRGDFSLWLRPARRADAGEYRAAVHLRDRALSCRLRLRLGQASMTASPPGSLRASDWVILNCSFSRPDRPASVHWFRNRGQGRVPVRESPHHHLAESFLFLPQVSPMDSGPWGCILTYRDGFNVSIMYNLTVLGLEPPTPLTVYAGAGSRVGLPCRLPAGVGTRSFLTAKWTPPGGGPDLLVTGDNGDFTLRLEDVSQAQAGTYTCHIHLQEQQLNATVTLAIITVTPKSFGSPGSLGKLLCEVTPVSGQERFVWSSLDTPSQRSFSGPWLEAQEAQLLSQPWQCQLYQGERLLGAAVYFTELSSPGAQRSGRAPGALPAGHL

B1: DNV3 IgG4 (antibody)
heavy: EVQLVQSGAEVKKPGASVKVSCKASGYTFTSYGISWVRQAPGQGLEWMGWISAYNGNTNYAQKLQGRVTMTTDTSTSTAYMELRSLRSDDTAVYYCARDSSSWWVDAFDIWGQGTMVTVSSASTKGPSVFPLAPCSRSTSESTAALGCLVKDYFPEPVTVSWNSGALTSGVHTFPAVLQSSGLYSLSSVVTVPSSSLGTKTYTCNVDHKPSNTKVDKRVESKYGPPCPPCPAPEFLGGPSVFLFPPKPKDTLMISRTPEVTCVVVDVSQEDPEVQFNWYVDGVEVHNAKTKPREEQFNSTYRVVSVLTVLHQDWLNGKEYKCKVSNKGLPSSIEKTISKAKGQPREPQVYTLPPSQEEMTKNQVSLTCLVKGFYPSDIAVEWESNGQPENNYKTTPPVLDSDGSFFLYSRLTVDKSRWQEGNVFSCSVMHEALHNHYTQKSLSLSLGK
light: QSVLTQPPSVSAAPGQKVTISCSGSTSNIAINYVSWYQQVPGTVPKLLIYDDDKRPSGIPDRFSGSKSGTSATLDISGLQTGDEAHYYCGVWDNSLLAVLFGGGTSLTVLGQPKAAPSVTLFPPSSEELQANKATLVCLISDFYPGAVTVAWKADSSPVKAGVETTTPSKQSNNKYAASSYLSLTPEQWKSHRSYSCQVTHEGSTVEKTVAPTECS
notes: Human IgG4 made in 293FS cells; also called original DNV3 IgG4
B2: DNV3 IgG1 (antibody)
heavy: not shown
light: B1 light
notes: Human IgG1 made in 293FS cells
B3: DNV2 Fab (Fab, V domains shown)
VH: EVQLVQSGAEVKKPGASVKVSCKASGGTFSSYTISWVRQAPGQGLEWMGGIIPIFGTANYAQKFQGRVTITADKSTSTAYMELSSLRSEDTAVYYCARDPVFDYWGQGTLVTVSS
VL: DIQLTQSPSSLSASVGDRVTITCRASQNIGTYLNWYQQKPGKAPKLLIYAASSLQSGVPSRFSGSGSGTDFTLTISSLQPEDFATYYCQQLNSYPITFGQGTRLEIK
notes: Human Fab from a phage library, hexahistidine-tagged, detected through a FLAG tag, made in E. coli HB2151
B4: DNV5 Fab (Fab, V domains shown)
VH: QVQLVQSGAEVKKPGASVKVSCKASGGTFSSYAISWVRQAPGQGLEWMGGIIPIFGTANYAQKFQGRVTITADESTSTAYMELSSLRSEDTAVYYCARASPPAAYYYYYGMDVWGQGTTVTVSS
VL: DIQMTQSPSSLSASVGDRVTITCQASQDISNYLNWYQQKPGKAPKLLIYAASILQSGVPSRFSGSGSGTDFTLTISSLQPEDFATYYCQQSHSYSETFGQGTKVEIK
notes: as for B3
B5: DNV6 Fab (Fab, V domains shown)
VH: EVQLVQSGAEVKKPGESLKISCKGSGYSFTSYWIGWVRQMPGKGLEWMGIIYPGDSDTRYSPSFQGQVTISADKSISTAYLQWSSLKASDTAMYYCASGAPGYYYDSSGYYAFDIWGQGTMVTVSS
VL: QSVVTQPPSVSGAPGQRVTVSCTGSSSNIGADFDVHWYQQLPGTAPKLLIYGNTNRPSGVPDRFSGSKSGTSASLAITGLQAEDEADYYCQSYDNSLSGVVFGGGTKVTVL
notes: as for B3
B6: DNV3.13 Fab (Fab, V domains shown)
VH: EVQLVQSGAEVKKPGASVKVSCKASGYTFTSYGISWVRQAPGQGLEWMGWISAYNGNTNYAQKLQGRVTMTTDTSTSTAYMELRSLRSDDTAVYYCARDSSSWWVDAFDIWGQGTMVTVSS
VL: SYVLTQPPSASGTPGQRVTMSCSGRYSNIGGNTVNWYHHLPGTAPTLLIYSNDQRPSGVPDRFSGSKSGTSASLAISGVQSEDEADYYCAAWDDNLNGLVFGTGTKVTVL
notes: Light-chain-shuffled Fab variant of DNV3
B7: DNV3.15 Fab (Fab, V domains shown)
VH: B6 VH
VL: LPVLTQPPSASGTPGQRITISCSGSSSNIGSATVNWYQHLPGTAPKLLIYGDNQRPSGVADRFSGSKSGTSASLEIRGLQSEDEADYYCAAWDGSLDGVMFGGGTRVNVL
notes: as for B6
B8: DNV3.18 Fab (Fab, V domains shown)
VH: B6 VH
VL: SVVTQPPSVSEAPRQRVTISCSGSSSNIGNNAVNWYQQLPGKAPKLLIYYDDLLPSGVSDRFSGSKSGTSASLAISGLQSEDEADYYCAAWDDSLNAVVFGGGTKLTVL
notes: as for B6
B9: DNV7 Fab (Fab, V domains shown)
VH: EVQLVESGAEVKKPGSSVKVSCKASGGTFSSYAISWVRQAPGQGLEWMGGIIPIFGTANYAQKFQGRVTITADKSTSTAYMELSSLRSEDTAVYYCALDGKSGFDLAFDIWGQGTMVTVSS
VL: DIQLTQSPSSLSASVGDRVTITCRASRRISSYLNWYQQKQGKAPQLLIYAASSLQSGVPSRFSGSGSGTEFTLTISSLQPEDFATYYCQQFNSYPLTFGGGTKVEIK
notes: as for B3
B10: DNV4 Fab (Fab, V domains shown)
VH: EVQLVQSGAEVKKPGSSVKVSCKASGGTFSSYAISWVRQAPGQGLEWMGGIIPIFGTANYAQKFQGRVTITADESTSTAYMELSSLRSEDTAVYYCAREKPTGGYYGMDVWGKGTLVTVSS
VL: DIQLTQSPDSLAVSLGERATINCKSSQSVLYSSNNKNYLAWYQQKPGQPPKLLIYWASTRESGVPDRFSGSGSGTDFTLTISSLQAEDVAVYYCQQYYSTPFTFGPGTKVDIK
notes: as for B3

Tests used:
[1] = biological target: T1, LAG3 of the Promega LAG3-MHCII Blockade …; assay: cell-based or functional assay
[2] = biological target: T2, recombinant human LAG3 (Sino Biological …); assay: ELISA, recombinant human LAG3 coated, IgG detected by anti-human IgG (Fc-specific)-HRP
Experimental: ELISA was performed according to standard protocols. Briefly, recombinant human LAG3 (Sino Biological Inc.) was coated on Corning EIA/RIA high-binding 96-well plates (Corning Inc.) at 50 ng per well overnight at 4° C. and blocked with 3% nonfat milk in PBS (pH7.4). Fivefold serially diluted antibodies were added and incubated at room temperature for 2 h. The plates were washed with PBS containing 0.05% Tween 20. Bound Fab and IgG antibodies were detected by HRP-conjugated anti-FLAG tag antibody and HRP-conjugated anti-human IgG (Fe-specific) antibody (Sigma-Aldrich), respectively. The assay was developed at room temperature with TMB substrate (Sigma-Aldrich) and monitored at 450 nm with a microplate reader. The half-maximal binding (EC₅₀) was calculated by fitting the data to the Langmuir adsorption isotherm. DNV3 IgG1 and IgG4 were cloned into the plasmid vectors pDin1 and pDin4, respectively. They were expressed and purified from transiently transfected 293 freestyle cell cultures with a yield of […]. In ELISA, both DNV3 IgG1 and IgG4 bound to recombinant human LAG3 with an EC₅₀ of approximately 0.5 nM (FIG. 5).

[3] = biological target: T2, recombinant human LAG3 (Sino Biological …); assay: phage panning and monoclonal phage ELISA on recombinant human LAG3
Experimental: We have recently constructed a large (size, 10¹¹) phage-display naïve human Fab library with peripheral blood B cells from about 30 healthy individuals according to the previously published protocols (de Haard et al., J Biol Chem 1999, 274: 18218-18230). This library was used for selection of antibodies against recombinant human LAG3 conjugated to magnetic beads (Dynabeads M-270 epoxy; DYNAL Inc.) as described previously (Zhu et al., J Virol 2006, 80:891-899) except that we used 5, 1 and 0.1 μg of antigen in the first, second and third round of panning, respectively. Clones that bound to the antigen were identified from the third round of biopanning by using monoclonal phage ELISA as described (Zhu et al., J Virol 2006, 80:891-899).

[4] = biological target: T2, recombinant human LAG3 (Sino Biological …); assay: ELISA, recombinant human LAG3 coated, Fab detected by anti-FLAG-HRP
Experimental: The hexahistidine-tagged antibodies were expressed in E. coli strain HB2151 and purified from the soluble fraction of periplasm by using the Ni-NTA resin. 7 monoclonal antibodies against human LAG3 were selected by panning a large phage-display library of naïve human antibodies in the format of antigen-binding fragment (Fab). Then ELISA was performed according to standard protocols. Briefly, recombinant human LAG3 (Sino Biological Inc.) was coated on Corning EIA/RIA high-binding 96-well plates (Corning Inc.) at 50 ng per well overnight at 4° C. and blocked with 3% nonfat milk in PBS (pH7.4). Fivefold serially diluted antibodies were added and incubated at room temperature for 2 h. The plates were washed with PBS containing 0.05% Tween 20. Bound antibodies were detected by HRP-conjugated anti-FLAG tag antibody (Sigma-Aldrich). The assay was developed at room temperature with TMB substrate (Sigma-Aldrich) and monitored at 450 nm with a microplate reader.

Row | Binder | binding result [3] | binding result [4] | also measured
1 | B1 |  |  | T cell activation, EC50 [1]: 8.7 nM; EC50 [2]: ~0.5 nM
2 | B2 |  |  | EC50 [2]: ~0.5 nM
3 | B3 | binds |  | 
4 | B4 |  |  | EC50 [4]: ≤ 10 nM
5 | B5 |  |  | EC50 [4]: ≤ 10 nM
6 | B6 |  | binds | 
7 | B7 |  | binds | 
8 | B8 |  | binds | 
9 | B9 | binds |  | 
10 | B10 | binds |  | 
